Biological target: T1, recombinant RABL3 (human, UniProt Q5HYI8 1-236)
T1 sequence (looked up): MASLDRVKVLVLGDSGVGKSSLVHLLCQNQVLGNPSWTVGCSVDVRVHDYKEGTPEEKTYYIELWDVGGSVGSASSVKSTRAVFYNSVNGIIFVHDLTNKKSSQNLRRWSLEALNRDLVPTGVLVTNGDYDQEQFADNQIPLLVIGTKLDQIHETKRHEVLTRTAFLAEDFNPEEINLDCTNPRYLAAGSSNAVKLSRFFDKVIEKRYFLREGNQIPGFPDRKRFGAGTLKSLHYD
Assay: pull-down

binding result: binds
B1: recombinant GST-RAB11A (natural protein, human, UniProt P62491 1-216, looked up)
chain: MGTRDDEYDYLFKVVLIGDSGVGKSNLLSRFTRNEFNLESKSTIGVEFATRSIQVDGKTIKAQIWDTAGQERYRAITSAYYRGAVGALLVYDIAKHLTYENVERWLKELRDHADSNIVIMLVGNKSDLRHLRAVPTDEARAFAEKNGLSFIETSALDSTNVEAAFQTILTEIYRIVSQKQMSDRRENDMSPSNNVVPIHVPPTTENKPKVQCCQNI

— publication doi:10.1101/2022.03.14.484356 (bioRxiv, 2022)
